Measurements as given in US20230002499A1, “METHODS OF CANCER TREATMENT WITH ANTI-OX40 ANTIBODY IN COMBINATION WITH CHEMOTHERAPEUTIC AGENTS” (BeiGene (Beijing) Co., Ltd., priority 2019, published 2023).

T1: full-length human OX40 expressed on HuT78/OX40 cells (human, UniProt P43489 29-277)
T1 sequence: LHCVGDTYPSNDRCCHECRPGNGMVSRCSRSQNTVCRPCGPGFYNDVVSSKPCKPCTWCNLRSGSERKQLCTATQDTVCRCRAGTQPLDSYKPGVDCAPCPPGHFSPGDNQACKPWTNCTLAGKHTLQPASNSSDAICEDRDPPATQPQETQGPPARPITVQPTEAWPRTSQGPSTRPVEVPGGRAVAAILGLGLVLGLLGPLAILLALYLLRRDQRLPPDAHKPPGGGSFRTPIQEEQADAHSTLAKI


How the values were obtained:
[1] = molecular target: T1, full-length human OX40 expressed on …; assay: flow cytometry on live HuT78/OX40 cells; top of fitted curve
Procedure: To evaluate the binding activity of anti-OX40 antibodies to bind OX40 expressed on the surface of live cells, HuT78 cells were transfected with human OX40 as described in Example 1 to create an OX40 expressing line. Live HuT78/OX40 cells were seeded in 96-well plate and were incubated with a serial dilution of various anti-OX40 antibodies. Goat anti-Human IgG-FITC (Cat: A0556, Beyotime) was used as a secondary antibody to detect antibody binding to the cell surface. EC₅₀ values for dose-dependent binding to human OX40 were determined by fitting the dose-response data to the four-parameter logistic model with GraphPad Prism.

[2] = test system: CT26WT cells, a murine colon carcinoma cell line; assay: CT26WT syngeneic mouse model, OX86 in combination with Oxaplatin/5-Fu; assay type: in vivo; settings: OX86 0.08 mg/kg QW i.p.; Oxaplatin 1.5 mg/kg QW i.p.; 5-Fu 15 mg/kg once daily five days per week i.p.
Procedure: Female BALB/c mice were subcutaneously implanted with 1×10^5 CT26WT cells, a murine colon carcinoma cell line, in 150 μL PBS in the right flank. After inoculation, the mice were randomized into 4 groups with 20 animals in each group. Mice were treated with vehicle as a control.
OX86 is a rat anti-mouse OX40 antibody previously disclosed in WO2016/057667, which was further engineered with mouse IgG2a constant regions in order to reduce its immunogenicity and also keep its Fc-mediated functions in mouse studies. The VH and VL regions of OX86 are provided below. […] As monotherapy, OX86 was administered at 0.08 mg/kg once per week (QW) by intraperitoneal (i.p.) injection.
Oxaplatin/5-Fluorouracil (5-Fu) was administered as a single agent to the mice. The OX86 antibody in combination with Oxaplatin/5-Fu was administered as combination therapy. OX86 (0.08 mg/kg) was administered once per week by intraperitoneal (i.p.) injection. Oxaplatin (1.5 mg/kg) was also dosed once per week (QW) intraperitoneally, and 5-Fu was given at 15 mg/kg once daily for five consecutive days per week by i.p. injection. […] Tumor volume was determined twice weekly in two dimensions by using a caliper and was expressed in mm^3 using the formula: V=0.5(a×b^2) where a and b are the long and short diameters of the tumor, respectively. […] Tumor growth inhibition (TGI) is calculated using the following formula: […]

| Molecule | Top (MFI), Mean [1] | Mean Tumor Volume on Day 11 (Mean ± SEM) [2] | TGI (%) on Day 11 [2] |
| --- | --- | --- | --- |
| 445-2 (antibody, human IgG1, V domains shown) VH: QVQLVQSGAEVKKPGSSVKVSCKASGYKFTSYIIHWVRQAPGQGLEWMGYINPYNEGTRYAQKFQGRVTLTADKSTSTAYMELSSLRSEDTAVYYCARGYYGSSYAMDYWGQGTTVTVSS VL: DIQMTQSPSSLSASVGDRVTITCSASQGISNYLNWYQQKPGKAIKLLIYDASTLYSGVPSRFSGSGSGTDFTLTISSLQPEDFATYYCQQYSKLPYTFGGGTKVEIK | 620 MFI | – | – |
| 445-3 IgG4 (antibody, V domains shown) VH: QVQLVQSGAEVKKPGSSVKVSCKASGYKFTSYIIHWVRQAPGQGLEWMGYINPYNEGTRYNQKFQGRVTLTADKSTSTAYMELSSLRSEDTAVYYCARGYYGSSYAMDYWGQGTTVTVSS VL: DIQMTQSPSSLSASVGDRVTITCRASQGISNYLNWYQQKPDGAIKLLIYDASTLYSGVPSRFSGSGSGTDFTLTISSLQPEDFATYYCQQYSKLPYTFGGGTKVEIK | 892 MFI | – | – |
| 445-3 (antibody, human IgG1, V domains shown, Human IgG1 wild type format) VH: QVQLVQSGAEVKKPGSSVKVSCKASGYKFTSYIIHWVRQAPGQGLEWMGYINPYNEGTRYNQKFQGRVTLTADKSTSTAYMELSSLRSEDTAVYYCARGYYGSSYAMDYWGQGTTVTVSS VL: DIQMTQSPSSLSASVGDRVTITCRASQGISNYLNWYQQKPDGAIKLLIYDASTLYSGVPSRFSGSGSGTDFTLTISSLQPEDFATYYCQQYSKLPYTFGGGTKVEIK | 910 MFI | – | – |
| 445-1 (antibody, IgG1, V domains shown, Full-length antibody with human wild-type IgG1 (IgG1wt) and kappa constant regions) VH: QVQLVQSGAEVKKPGSSVKVSCKASGYKFTSYIIHWVRQAPGQGLEWMGYINPYNDGTRYNQKFQGRVTLTSDKSTSTAYMELSSLRSEDTAVYYCARGYYGSSYAMDYWGQGTTVTVSS VL: DIQMTQSPSSLSASVGDRVTITCSASQGISNYLNWYQQKPGKAIKLLIYDTSTLYSGVPSRFSGSGSGTDYTLTISSLQPEDFATYYCQQYSKLPYTFGGGTKVEIK | 525 MFI | – | – |
| OX86: rat anti-mouse OX40 antibody disclosed in WO2016/057667, engineered with mouse IgG2a constant regions; VH SEQ ID NO: 32, VL SEQ ID NO: 33 (antibody, V domains shown, mouse IgG2a constant regions) VH: QVQLKESGPGLVQPSQTLSLTCTVSGFSLTGYNLHWVRQPPGKGLEWMGRMRYDGDTYYNSVLKSRLSISRDTSKNQVFLKMNSLQTDDTAIYYCTRDGRGDSFDYWGQGVMVTVSS VL: DIVMTQGALPNPVPSGESASITCRSSQSLVYKDGQTYLNWFLQRPGQSPQLLTYWMSTRASGVSDRFSGSGSGTYFTLKISRVRAEDAGVYYCQQVREYPFTFGSGTKLEIK | – | 969.2 ± 229.0 mm^3 | 48% |
| ch445 (antibody, V domains shown) VH: EVQLQQSGPELVKPGASVKMSCKASGYKFTSYIIHWVKQKPGQGLEWIGYINPYNDGTRYNEKFKGKATLTSDKSSSTAYMEYSSLTSEDSAVYYCARGYYGSSYAMDYWGQGTSVTVSS VL: DIQMTQTTSSLSASLGDRVTISCSASQGISNYLNWYQQKPDGTIKLLIYDTSTLYSGVPSRFSGSGSGTDYFLTISNLEPEDIATYYCQQYSKLPYTFGGGTKLEKK | 725 MFI | – | – |
